Test results taken from patent US20230074436A1 (DENALI THERAPEUTICS, published 2023).
No end group written: not given here. *: point of attachment. Biotin = O=C1N[C@H]2[C@H](CS[C@H]2CCCCC(=O)*)N1

Legend:
asyn_113-127_124P [1] = target: T1, asyn_113-127_124P (human); assay: Ala-scan peptide ELISA, row D, run 1
T1 construct: substitution is already in the entry; also called pep14
T1 peptide: Biotin-LEDMPVDPDNEPYEM
Description: (§1) 96-well Nunc plates were coated with 50 μL per well of 1 μg/mL streptavidin (from Jackson Immuno Research Laboratory) in PBS at 4° C. overnight. The plates were washed three times with PBST, and blocked with PBS containing 3% BSA at room temperature for 1 hour. The N-terminal biotinylated peptides were dissolved in Milli Q water to a concentration of 2 mg/mL, then further diluted to a concentration of 2 μg/mL with PBS. 50 μl of the diluted peptide was applied to the streptavidin-coated plates and incubated at 4° C. overnight. 2 μg/mL of biotinylated human alpha-synuclein was used as the positive control. The plates were washed three times with PBST before use. Purified antibody was diluted by serial dilution methods, from 20 μg/mL to 1 ng/mL, and 50 μL of the antibody solution was added to the peptide-coated wells. The plates were incubated for 1 hour at room temperature, then washed three times with PBST. Secondary detection antibody (goat anti-rat HRP (obtained from Southern Biotech)) was added with 1:5,000 dilutions and incubated for 1 hour at room temperature, then washed three times with PBST. Plates were developed with 50 μL/well of TMB substrate (Thermo Fisher) and quenched with 50 μL/well of 1 N sulfuric acid. The signal was quantified on a BioTek® plate reader at A450. A parallel repeat was performed for each peptide in a separate plate.

asyn_113-127_115A [2] = target: T2, asyn_113-127_115A (human); assay: Ala-scan peptide ELISA, row D, run 1
T2 construct: substitution is already in the entry; also called pep4
T2 peptide: Biotin-LEAMPVDPDNEAYEM
Description: as §1

asyn_113-127_120A [3] = target: T3, asyn_113-127_120A (human); assay: Ala-scan peptide ELISA, row D, run 1
T3 construct: substitution is already in the entry; also called pep9
T3 peptide: Biotin-LEDMPVDADNEAYEM
Description: as §1

asyn_113-127_116A = target: T4, asyn_113-127_116A (human); assay: Ala-scan peptide ELISA, row D, run 1
T4 construct: substitution is already in the entry; also called pep5
T4 peptide: Biotin-LEDAPVDPDNEAYEM
Description: as §1

asyn_113-127_127A = target: T5, asyn_113-127_127A (human); assay: Ala-scan peptide ELISA, row D, run 1
T5 construct: substitution is already in the entry; also called pep17
T5 peptide: Biotin-LEDMPVDPDNEAYEA
Description: as §1

asyn_113-127_122A [4] = target: T6, asyn_113-127_122A (human); assay: Ala-scan peptide ELISA, row D, run 1
T6 construct: substitution is already in the entry; also called pep11
T6 peptide: Biotin-LEDMPVDPDAEAYEM
Description: as §1

asyn_113-127_121A [5] = target: T7, asyn_113-127_121A (human); assay: Ala-scan peptide ELISA, row D, run 1
T7 construct: substitution is already in the entry; also called pep10
T7 peptide: Biotin-LEDMPVDPANEAYEM
Description: as §1

asyn_113-127_114A [6] = target: T8, asyn_113-127_114A (human); assay: Ala-scan peptide ELISA, row D, run 1
T8 construct: substitution is already in the entry; also called pep3
T8 peptide: Biotin-LADMPVDPDNEAYEM
Description: as §1

asyn_113-127_117A [7] = target: T9, asyn_113-127_117A (human); assay: Ala-scan peptide ELISA, row D, run 1
T9 construct: substitution is already in the entry; also called pep6
T9 peptide: Biotin-LEDMAVDPDNEAYEM
Description: as §1

asyn_113-127_123A = target: T10, asyn_113-127_123A (human); assay: Ala-scan peptide ELISA, row D, run 1
T10 construct: substitution is already in the entry; also called pep12
T10 peptide: Biotin-LEDMPVDPDNAAYEM
Description: as §1

asyn_113-127_118A = target: T11, asyn_113-127_118A (human); assay: Ala-scan peptide ELISA, row D, run 1
T11 construct: substitution is already in the entry; also called pep7
T11 peptide: Biotin-LEDMPADPDNEAYEM
Description: as §1

asyn_113-127_126A [8] = target: T12, asyn_113-127_126A (human); assay: Ala-scan peptide ELISA, row D, run 1
T12 construct: substitution is already in the entry; also called pep16
T12 peptide: Biotin-LEDMPVDPDNEAYAM
Description: as §1

asyn_113-127 = target: T13, asyn_113-127 (human); assay: Ala-scan peptide ELISA, row D, run 1
T13 construct: also called pep1
T13 peptide: Biotin-LEDMPVDPDNEAYEM
Description: as §1

asyn_113-127_113A [9] = target: T14, asyn_113-127_113A (human); assay: Ala-scan peptide ELISA, row D, run 1
T14 construct: substitution is already in the entry; also called pep2
T14 peptide: Biotin-AEDMPVDPDNEAYEM
Description: as §1

asyn_113-127_125A [10] = target: T15, asyn_113-127_125A (human); assay: Ala-scan peptide ELISA, row D, run 1
T15 construct: substitution is already in the entry; also called pep15
T15 peptide: Biotin-LEDMPVDPDNEAAEM
Description: as §1

asyn_113-127_119A [11] = target: T16, asyn_113-127_119A (human); assay: Ala-scan peptide ELISA, row D, run 1
T16 construct: substitution is already in the entry; also called pep8
T16 peptide: Biotin-LEDMPVAPDNEAYEM
Description: as §1

asyn_113-127_124G = target: T17, asyn_113-127_124G (human); assay: Ala-scan peptide ELISA, row D, run 1
T17 construct: substitution is already in the entry; also called pep13
T17 peptide: Biotin-LEDMPVDPDNEGYEM
Description: as §1

[12] = target: T18, biotinylated human alpha-synuclein (human, UniProt P37840 1-140); assay: Ala-scan peptide ELISA, row D, run 1
Description: as §1

rat alpha-synuclein = rat alpha-synuclein (rat, UniProt P37377 1-140); assay: direct ELISA on coated antigen;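 also: plates coated with recombinant human, mouse or rat alpha-synuclein, purified antibody titrated 10 µg/mL down to 0.6 ng/mL for 1 h, bound antibody detected by anti-rat HRP with TMB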
Description: (§2) 96-well Nunc plates were coated with 50 μL of recombinant human, mouse, or rat alpha-synuclein at a concentration of 1 μg/mL in PBS at 4° C. overnight. The plates were then washed three times with PBST and blocked with PBS containing 3% BSA at room temperature for 1 hour. Purified antibody was diluted by serial dilution methods, from 10 μg/mL to 0.6 ng/mL, and 50 μL of the antibody solution was added to the alpha-synuclein-coated wells. The plates were incubated for 1 hour at room temperature, then washed three times with PBST. Secondary detection antibody (goat anti-rat HRP (obtained from Southern Biotech)) was added 50 μL/well, 1:5,000 diluted in BSA-PBS solution. Plates were incubated for 1 hour at room temperature, then washed three times with PBST. Plates were subsequently developed with 50 μL/well of TMB substrate (Thermo Fisher) and quenched with 50 μL/well of 1 N sulfuric acid. The signal was quantified on a BioTek® plate reader at A450.

[13] = target: human alpha-synuclein monomer (human, UniProt P37840 1-140); assay: direct ELISA on coated antigen;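 also: plates coated with recombinant human, mouse or rat alpha-synuclein, purified antibody titrated 10 µg/mL down to 0.6 ng/mL for 1 h, bound antibody detected by anti-rat HRP with TMB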
Description: as §2

gamma-synuclein protein = target: T19, gamma-synuclein protein (human, UniProt O76070 1-127); assay: ELISA on coated synuclein, 1 ug/mL
T19 construct: species read from 'recombinant human alpha-synuclein protein, beta-synuclein protein, and gamma-synuclein protein'
Description: (§3) Binding to different synuclein species was tested using a method similar to the ELISA format described above. Briefly, recombinant human alpha-synuclein protein, beta-synuclein protein, and gamma-synuclein protein was coated onto 96-well Nunc plates at 1 μg/mL. The plates were washed with PBST and blocked with 150 μL of 3% BSA in PBS. The serial dilutions of purified antibodies were applied onto the plate, and the associated antibody was detected with goat anti-rat HRP secondary antibody.

beta-synuclein protein = target: T20, beta-synuclein protein (human, UniProt Q16143 1-134); assay: ELISA on coated synuclein, 1 ug/mL
T20 construct: species read from 'recombinant human alpha-synuclein protein, beta-synuclein protein, and gamma-synuclein protein'
Description: as §3

asyn_113-127_124P [14] = target: T1, asyn_113-127_124P; assay: Ala-scan peptide ELISA, row F, run 1
Description: as §1

asyn_113-127_115A [15] = target: T2, asyn_113-127_115A; assay: Ala-scan peptide ELISA, row F, run 1
Description: as §1

asyn_113-127_120A [16] = target: T3, asyn_113-127_120A; assay: Ala-scan peptide ELISA, row F, run 1
Description: as §1

asyn_113-127_122A [17] = target: T6, asyn_113-127_122A; assay: Ala-scan peptide ELISA, row F, run 1
Description: as §1

asyn_113-127_121A [18] = target: T7, asyn_113-127_121A; assay: Ala-scan peptide ELISA, row F, run 1
Description: as §1

asyn_113-127_114A [19] = target: T8, asyn_113-127_114A; assay: Ala-scan peptide ELISA, row F, run 1
Description: as §1

asyn_113-127_117A [20] = target: T9, asyn_113-127_117A; assay: Ala-scan peptide ELISA, row F, run 1
Description: as §1

asyn_113-127_126A [21] = target: T12, asyn_113-127_126A; assay: Ala-scan peptide ELISA, row F, run 1
Description: as §1

asyn_113-127_113A [22] = target: T14, asyn_113-127_113A; assay: Ala-scan peptide ELISA, row F, run 1
Description: as §1

asyn_113-127_125A [23] = target: T15, asyn_113-127_125A; assay: Ala-scan peptide ELISA, row F, run 1
Description: as §1

asyn_113-127_119A [24] = target: T16, asyn_113-127_119A; assay: Ala-scan peptide ELISA, row F, run 1
Description: as §1

[25] = target: T18, biotinylated human alpha-synuclein; assay: Ala-scan peptide ELISA, row F, run 1
Description: as §1

B1: 20H4 (antibody, rat IgG2b, V domains shown)
VH: AVQLVESGGGLVQPKESLKISCAASGFTFSNAAMYWVRQAPGKGLELLARIRTKPNNYATYHADSVKGRFTISRDDSQSMVYLHMGNLKTEDTAMYYCTADMATGDYWGPGVMVTVSS
VL: DIQMTQSPPVLSVSVGDRVTLSCKASQNINKNLDWYQQKHGEAPKPLIYSTNNLQTGVPSRFSGSGSGTDYTLTISSLQPEDVATYYCYQYKSAWTFGGGTKLELR
notes: also called clone 20H4; rat 20H4
A450 (asyn_113-127_124P [1]): 0.044 OD
A450 (asyn_113-127_115A [2]): 0.332 OD
A450 (asyn_113-127_120A [3]): 0.277 OD
A450 (asyn_113-127_116A): 0.414 OD
A450 (asyn_113-127_127A): 0.357 OD
A450 (asyn_113-127_122A [4]): 0.051 OD
A450 (asyn_113-127_121A [5]): 0.358 OD
A450 (asyn_113-127_114A [6]): 0.387 OD
A450 (asyn_113-127_117A [7]): 0.431 OD
A450 (asyn_113-127_123A): 0.43 OD
A450 (asyn_113-127_118A): 0.415 OD
A450 (asyn_113-127_126A [8]): 0.375 OD
A450 (asyn_113-127): 0.421 OD
A450 (asyn_113-127_113A [9]): 0.422 OD
A450 (asyn_113-127_125A [10]): 0.047 OD
A450 (asyn_113-127_119A [11]): 0.051 OD
A450 (asyn_113-127_124G): 0.336 OD
A450 [12]: 0.491 OD
Bmax (O.D. at 450 nm) (rat alpha-synuclein): 0.2 OD
EC50 (rat alpha-synuclein): 1500 pM
Bmax (O.D. at 450 nm) [13]: 0.83 OD
EC50 [13]: 180 pM
binding result (gamma-synuclein protein): no binding
binding result (beta-synuclein protein): no binding
A450 (asyn_113-127_124P [14]): 0.044 OD
A450 (asyn_113-127_115A [15]): 0.089 OD
A450 (asyn_113-127_120A [16]): 0.132 OD
A450 (asyn_113-127_122A [17]): 0.05 OD
A450 (asyn_113-127_121A [18]): 0.153 OD
A450 (asyn_113-127_114A [19]): 0.153 OD
A450 (asyn_113-127_117A [20]): 0.174 OD
A450 (asyn_113-127_126A [21]): 0.149 OD
A450 (asyn_113-127_113A [22]): 0.151 OD
A450 (asyn_113-127_125A [23]): 0.044 OD
A450 (asyn_113-127_119A [24]): 0.05 OD
A450 [25]: 0.243 OD
